Results published in patent US20030103986A1 (ZymoGenetics, published 2003).
One block for each binder: values may come before it.

How the values were obtained:
ZTNF4 [1] = biological target: T1, ZTNF4 (Homo sapiens (Human), UniProt Q9Y275 134-285, limits assumed, radioiodinated with 125I (Iodobeads) in the binding assays; unlabeled ZTNF4 used to determine nonspecific binding); experiment: competitive binding: TACI-Fc against plate-coated TACI-N for 125I-ZTNF4
T1 construct: also called BAFF
Description: (§1) An N-terminal fragment of the TACI receptor, designated as “TACI-N,” was added to 96-well plates (100 μl at 0.1 μg/ml), and incubated overnight at 4° C. The plates were washed, blocked with Superblock (Pierce), and washed again. […] After incubation, the plates were washed and counted. Each determination was performed in triplicate.

ZTNF4 [2] = biological target: T1, ZTNF4; experiment: solution binding: 0.05 nM TACI-Fc with 0.4 pM to 1.5 nM 125I-ZTNF4, Pansorbin precipitation
Description: At a concentration of 0.05 nM, each TACI-Fc construct was incubated with 0.4 pM to 1.5 nM ¹²⁵I-ZTNF4 for 30 minutes at room temperature in a total volume of 0.25 ml/tube. A Pansorbin (Staph A) suspension was added to each tube, and after 15 minutes, the samples were centrifuged, washed twice, and the pellets counted. Nonspecific binding was determined by the addition of 130 nM unlabeled ZTNF4 to the ¹²⁵I-ZTNF4/TACI-Fc mix. Specific binding was calculated by subtracting the cpm bound in the presence of unlabeled ZTNF4 from the total cpm bound at each concentration of ¹²⁵I-ZTNF4. Each determination was performed in triplicate. Binding constants were calculated using GraphPad Prism software (MacIntosh v. 3.0).

ZTNF4 [3] = biological target: T1, ZTNF4; experiment: competitive binding: TACI-Fc against plate-coated TACI-N for 125I-ZTNF4 (20 ng/ml); average of three experiments
Description: as §1

- concentration giving complete inhibition (ZTNF4 [1]): ~100 ng/mL
- Bmax (ZTNF4 [2]): 0.01 nM
- Kd (ZTNF4 [2]): 0.121 nM
- IC50 (ZTNF4 [3]): 4.95 nM
B1: TACI (d1-29, d107-154)-Fc5 (Fc fusion)
chain: AMRSCPEEQYWDPLLGTCMSCKTICNHQSQRTCAAFCRSLSCRKEQGKFYDHLLRDCISCASICGQHPKQCAYFCENEPKSSDKTHTCPPCPAPEAEGAPSVFLFPPKPKDTLMISRTPEVTCVVVDVSHEDPEVKFNWYVDGVEVHNAKTKPREEQYNSTYRVVSVLTVLHQDWLNGKEYKCKVSNKALPSSIEKTISKAKGQPREPQVYTLPPSRDELTKNQVSLTCLVKGFYPSDIAVEWESNGQPENNYKTTPPVLDSDGSFFLYSKLTVDKSRWQQGNVFSCSVMHEALHNHYTQKSLSLSPGK

- concentration giving complete inhibition (ZTNF4 [1]): ~100 ng/mL
- Bmax (ZTNF4 [2]): 0.021 nM
- Kd (ZTNF4 [2]): 0.092 nM
- IC50 (ZTNF4 [3]): 2.21 nM
B2: TACI (d1-29, d120-154)-Fc5 (Fc fusion)
chain: AMRSCPEEQYWDPLLGTCMSCKTICNHQSQRTCAAFCRSLSCRKEQGKFYDHLLRDCISCASICGQHPKQCAYFCENKLRSPVNLPPELREPKSSDKTHTCPPCPAPEAEGAPSVFLFPPKPKDTLMISRTPEVTCVVVDVSHEDPEVKFNWYVDGVEVHNAKTKPREEQYNSTYRVVSVLTVLHQDWLNGKEYKCKVSNKALPSSIEKTISKAKGQPREPQVYTLPPSRDELTKNQVSLTCLVKGFYPSDIAVEWESNGQPENNYKTTPPVLDSDGSFFLYSKLTVDKSRWQQGNVFSCSVMHEALHNHYTQKSLSLSPGK

- concentration giving complete inhibition (ZTNF4 [1]): ~100 ng/mL
- Bmax (ZTNF4 [2]): 0.023 nM
- Kd (ZTNF4 [2]): 0.134 nM
- IC50 (ZTNF4 [3]): 2.07 nM
B3: TACI (d1-29)-Fc5 (Fc fusion)
chain: AMRSCPEEQYWDPLLGTCMSCKTICNHQSQRTCAAFCRSLSCRKEQGKFYDHLLRDCISCASICGQHPKQCAYFCENKLRSPVNLPPELRRQRSGEVENNSDNSGRYQGLEHRGSEASPALPGLKEPKSSDKTHTCPPCPAPEAEGAPSVFLFPPKPKDTLMISRTPEVTCVVVDVSHEDPEVKFNWYVDGVEVHNAKTKPREEQYNSTYRVVSVLTVLHQDWLNGKEYKCKVSNKALPSSIEKTISKAKGQPREPQVYTLPPSRDELTKNQVSLTCLVKGFYPSDIAVEWESNGQPENNYKTTPPVLDSDGSFFLYSKLTVDKSRWQQGNVFSCSVMHEALHNHYTQKSLSLSPGK
notes: Made in CHO DG44 cells

- concentration giving complete inhibition (ZTNF4 [1]): ~100 ng/mL
- Bmax (ZTNF4 [2]): 0.018 nM
- Kd (ZTNF4 [2]): 0.115 nM
- IC50 (ZTNF4 [3]): 2.31 nM
B4: TACI (d1-29, d111-154)-Fc5 (Fc fusion)
chain: AMRSCPEEQYWDPLLGTCMSCKTICNHQSQRTCAAFCRSLSCRKEQGKFYDHLLRDCISCASICGQHPKQCAYFCENKLRSEPKSSDKTHTCPPCPAPEAEGAPSVFLFPPKPKDTLMISRTPEVTCVVVDVSHEDPEVKFNWYVDGVEVHNAKTKPREEQYNSTYRVVSVLTVLHQDWLNGKEYKCKVSNKALPSSIEKTISKAKGQPREPQVYTLPPSRDELTKNQVSLTCLVKGFYPSDIAVEWESNGQPENNYKTTPPVLDSDGSFFLYSKLTVDKSRWQQGNVFSCSVMHEALHNHYTQKSLSLSPGK
